Experimental findings from US20230277625A1 (SIMCHA IL 18, published 2023) are described below.

What is called Kd is the free concentration of one partner at which half of the binding sites on the other are occupied at equilibrium, for simple one-to-one binding.

The target of test [1] is T1, Human IL-18Rα ectodomain (amino acids 19-329), biotinylated (human, UniProt Q13478 19-329, biotin on the AviTag (BirA ligase)).
T1 construct: range 19-329; Secreted from insect cells (gp67 signal peptide removed); also called hIL-18Rα; hIL18Rα
T1 sequence: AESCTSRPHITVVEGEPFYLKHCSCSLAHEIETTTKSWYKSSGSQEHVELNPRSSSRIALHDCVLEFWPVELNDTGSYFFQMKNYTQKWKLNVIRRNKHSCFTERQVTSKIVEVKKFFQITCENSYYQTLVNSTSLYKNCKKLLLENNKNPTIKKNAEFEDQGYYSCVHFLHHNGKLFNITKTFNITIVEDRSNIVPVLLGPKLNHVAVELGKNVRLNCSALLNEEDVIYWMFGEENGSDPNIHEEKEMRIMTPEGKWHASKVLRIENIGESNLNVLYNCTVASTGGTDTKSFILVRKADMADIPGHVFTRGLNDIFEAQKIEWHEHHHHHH
Briefly: SPR (Biacore T100), receptor captured via biotin, IL-18 as analyte. The procedure:
(§1) Experiments were conducted using a Biacore T100 and carried out at 25° C. Biotinylated IL-18Rα or IL-18BP were immobilized onto a Biacore biotin capture chip (Series S CAP sensor chip, GE Healthcare) to yield an Rmax of ˜50 RU (IL-18Rα) or ˜10 RU (IL-18BP). Measurements were made with serial dilutions of the IL-18 variants in HEPES buffered Saline-P+buffer (10 mM HEPES pH 7.4, 150 mM NaCl, 0.005% surfactant P20). The surface was regenerated by three 60-sec injections of regeneration buffer (3/4 (v/v) 8M guanidine hydrochloride with 1/4 (v/v) 1M sodium hydroxide). Experiments were performed in multiple channels simultaneously for increased observations. All data were analyzed with the Biacore T100 evaluation software version 2.0 with a 1:1 Langmuir binding model.
To additionally characterize the receptor binding activities of the DR-IL-18 variants, the cytokines were expressed recombinantly and surface plasmon resonance for IL-18Rα and IL-18BP was performed (see FIG. 5B for representative traces).
For orientation: Surface plasmon resonance follows binding to a sensor surface in real time, without labels.

Test [2] deals with T2, Human IL-18BP (amino acids 31-194), biotinylated (human, UniProt O95998 31-194, biotin on the AviTag (BirA ligase) where used biotinylated).
T2 construct: Soluble decoy receptor; also called hIL-18BP; recombinant IL-18BP
T2 sequence: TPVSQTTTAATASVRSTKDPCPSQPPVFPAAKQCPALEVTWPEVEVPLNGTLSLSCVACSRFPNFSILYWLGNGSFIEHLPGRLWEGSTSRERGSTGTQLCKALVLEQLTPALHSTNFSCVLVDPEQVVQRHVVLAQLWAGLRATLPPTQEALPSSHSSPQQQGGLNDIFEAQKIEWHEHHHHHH
As to the kind of experiment: on-yeast binding isotherms; KD ratio relative to WT IL-18; yeast-displayed variant; ratio normalized to WT, from the 20 µM placeholder.

The target in test [3] is T2, Human IL-18BP (amino acids 31-194), …. Briefly: on-yeast binding isotherms; 20 µM used for NBD; yeast-displayed variant, flow cytometry; ratio computed with 20 µM put in for NBD. Background: Flow cytometry measures light scatter and fluorescence of single cells or particles in a stream.
The target in test [4] is T1, Human IL-18Rα ectodomain (amino acids …). Briefly: on-yeast binding isotherm (flow cytometry), drawn summary table, IL18Rα (KD). The procedure: (§2) Individual colonies of IL-18 yeast were grown overnight at 30° C. in SDCAA liquid media and induced in SGCAA liquid media for 1 day at 20° C. IL-18 display levels on yeast were verified by flow cytometry using an anti-cMyc tag antibody (anti-myc-PE; Cell Signaling Technologies). Receptor staining with biotinylated IL-18Rα (with or without IL-18R β) or biotinylated IL-18BP was performed in PBS supplemented with 0.5% BSA and 2 mM EDTA (PBE) on ice. All analysis was performed on a Sony SA3800 flow cytometer.

Test [5] deals with T3, Mouse IL-18BP (amino acids 31-194), biotinylated (mouse, UniProt Q9Z0M9 29-193, biotin on the AviTag (BirA ligase)).
T3 construct: also called mIL-18BP
T3 sequence: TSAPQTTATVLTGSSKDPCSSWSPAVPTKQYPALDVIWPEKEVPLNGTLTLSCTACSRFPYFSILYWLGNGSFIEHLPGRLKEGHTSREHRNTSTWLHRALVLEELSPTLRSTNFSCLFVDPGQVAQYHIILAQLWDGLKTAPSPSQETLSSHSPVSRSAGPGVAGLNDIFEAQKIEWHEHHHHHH
Briefly: yeast binding isotherms and SPR; members per FIG. 11A legend. Here is the method:
as §2, §1

Test [6] deals with T3, Mouse IL-18BP (amino acids 31-194), …. Briefly: on-yeast binding isotherms; 10 µM used for NBD; yeast-displayed variant; ratio computed with 10 µM put in for NBD. The procedure: as §2
For test [7] the target is unchanged. As to the kind of experiment: on-yeast binding isotherms; KD ratio relative to WT IL-18; yeast-displayed variant; ratio normalized to WT, from the 10 µM placeholder. The procedure:
as §2

Test [8] has the same target. Briefly: SPR (Biacore T100), IL-18BP captured via biotin, IL-18 as analyte; SPR, soluble variant. Here is the method:
as §1

For test [9], the target named is T4, Mouse IL-18Rα ectodomain (amino acids 19-329), biotinylated (mouse, UniProt Q61098 19-329, biotin on the AviTag (BirA ligase)).
T4 construct: range 19-329; Secreted from Expi293 cells (H7 signal peptide removed); also called mIL-18Rα; mIL18Ra
T4 sequence: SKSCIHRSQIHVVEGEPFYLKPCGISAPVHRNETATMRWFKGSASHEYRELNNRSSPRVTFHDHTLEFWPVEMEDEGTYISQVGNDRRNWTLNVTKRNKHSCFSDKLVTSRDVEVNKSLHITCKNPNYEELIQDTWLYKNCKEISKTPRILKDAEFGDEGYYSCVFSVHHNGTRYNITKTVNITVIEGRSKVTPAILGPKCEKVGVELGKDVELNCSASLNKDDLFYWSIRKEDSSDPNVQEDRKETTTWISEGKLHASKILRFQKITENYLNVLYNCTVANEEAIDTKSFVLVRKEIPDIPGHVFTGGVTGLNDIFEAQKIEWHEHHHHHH
As to the kind of experiment: SPR (Biacore T100), receptor captured via biotin, IL-18 as analyte. Here is the method: as §1

Test [10] addresses T3, Mouse IL-18BP (amino acids 31-194), …. As to the kind of experiment: SPR; KD ratio relative to WT IL-18; SPR; ratio normalized to WT. Here is the method: as §1
Test [11] shares this target. As to the kind of experiment: SPR; range of a group, this end tied to A7 by the 9th table; m is a multiple of 1,000,000.
For test [12], the target named is T4, Mouse IL-18Rα ectodomain (amino acids …). As to the kind of experiment: on-yeast binding isotherm (flow cytometry). The procedure:
as §2

The target in test [13] is T3, Mouse IL-18BP (amino acids 31-194), …. As to the kind of experiment: SPR; KD for IL-18BP over KD for IL-18Rα; SPR; ratio of two measured KD. Here is the method:
as §1

B1: SEQ ID NO: 35 (human DR-IL-18 variant hCS2) (ligand)
chain: YFGKLESKLSVIRNLNDQVLFIDQGNRPLFEDMTDSDCRDNAPRTIFIISTYKDKQPRAKAVTISVKCEKISTLSCENKIISFKEMNPPDNIKDTKSDIIFFQRDVPGHKHKMQFESSSYEGYFLACEKERDLFKLILKKEDELGDRSIMFTIQNED
notes: Engineered variant
Take B1: the results for the equilibrium dissociation constant (Kd) in [1] and in test [4] were 13.1 nM and 92 nM, respectively. For the same molecule, in test [2], the “Dissociation Constant Ratio normalized to WT IL-18” value was above 741. The “KD ratio IL-18BP/IL-18Rα” value in test [3] is above 219.

B2: SEQ ID NO: 70 (murine DR-IL-18 variant mA7) (ligand)
chain: YFGRLHCTTAVIRNINDQVLFVDKRQPVFEDMTDIDQSASEPQTRLIIYAYGDNRVRGKAVTLSVKDSKMSTLSCKNKIISFEEMDPPENIDDIQSDLIFFQKRVPGHNKMEFESSLYEGHFLACQKEDDAFKLILKKKDENGDKSVMFTLTNLHQS
notes: Engineered variant
As to B2, the dissociation constant Kd in test [5] was above 1000 nM; in test [8] it was 13900 nM; in [9] it was 0.22 nM; in test [12] it was 13.5 nM. Also, the “KD ratio IL-18BP/IL-18Rα” value was above 741 in test [6] and 63200 in [13]. The “Dissociation Constant Ratio normalized to WT IL-18” value in test [7] was above 3930; in [10] it was 3.45e+07. The “IL-18 BP:Rα Dissociation Constant Ratio” value in [11] worked out at 3.5e+07.
